Publication PMC9054013, “FCHO controls AP2’s initiating role in endocytosis through a PtdIns(4,5)P2-dependent switch” (Science Advances, 2022)

T1: Cμ2 (μ2 residues 160 to 435), P84092
T1 chain: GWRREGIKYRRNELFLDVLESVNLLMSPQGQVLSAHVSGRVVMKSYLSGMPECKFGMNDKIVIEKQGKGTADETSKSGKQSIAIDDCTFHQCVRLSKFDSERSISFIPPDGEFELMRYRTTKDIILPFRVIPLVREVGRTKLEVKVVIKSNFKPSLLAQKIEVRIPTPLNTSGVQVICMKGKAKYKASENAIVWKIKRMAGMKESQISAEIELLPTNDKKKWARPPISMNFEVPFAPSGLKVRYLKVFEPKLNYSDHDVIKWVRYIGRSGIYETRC


Biological target: T1, Cμ2 (μ2 residues 160 to 435), P84092
Test: ITC
Conditions: chain shown with the change;; parent: 25 ± 1 µM

Kd | Binder
110 µM | NIPDVDAAGYSIAPETNQNDTKENHFYSSSDSDSEDEEPKKYR [FCHO2-N1+N2 (ITC), Q0JRZ9-1 E320A; E321A; K326A]
54 µM | FCHO2-N1+N2 (ITC), Q0JRZ9-1 Y340S (protein) NIPDVDEEGYSIKPETNQNDTKENHFSSSSDSDSEDEEPKKYRIEIKPMHPNNSHHTMASLDELKVSIGNITLSPAISRHS
